# How the values were obtained:
# P388 leukemia = test: P388 Leukemia Model; type: in vivo; details: P388-bearing DBA/2 mice; for Survivors: 10 per group
# Protocol: All mice used were kept according to NIH standard regulation. The DBA/2 mice were divided into 4 groups, 10 mice in each group. The P388 innoculum tumor was induced by intraperitoneal injection of 10^6 cells per 0.1 ml innoculum. All doses were made up to a volume of 0.5 ml. Treatment was intraperitoneal injection of 0.5 ml saline (control), 0.002 ml of 10 mg/ml Fetuin (Group I), 0.02 ml (Group II) and 0.2 ml (Group III) for 10 days following tumor transplant. Mortalities were recorded daily. Results are expressed as the percent increase in life span (ILS) in Table 2.
# ILS=100×Median Life Span Treated−Median Life Span Control
# [1] = Antigenic response after Fetuin injection; type: in vivo; details: mice, rat and rabbits to bovine
# Text: However, the species are mice, rat and rabbits to bovine, not human to bovine. The amino acid sequence of Fetuin homologue between species is about 65%. Because the mechanism of Fetuin exerting the drug effect is by binding to the growth factors, this is expected to have less immune response than other protein nature drugs.
# PC-12 cells = test: Neurite outgrowth of PC-12 cells; type: cell-based; details: PC-12 cells in 0.5% serum+RPMI; 5uM Fetuin; over 2-3 days
# Protocol: PC-12 cells were seeded in 10% heat-inactivated horse serum, 5% fetal bovine serum in RPMI 1640 medium for 1-2 days. The media were changed to 0.5% serum+RPMI overnight and treated with 5uM Fetuin.
# [2] = Hematological and Pathological Assessment of Fetuin in Balb/C Mice; type: in vivo
# Protocol: The Balb/C mice weighing 20-30 g at six to eight weeks of age were divided in six animals per group, 3 female and 3 male, in this study. Fetuin is administered IV or IP at dose of 5 mg, 0.5 mg, 0.05 mg and 0.005 mg per 20 gm mouse for 7 days. Because the nutritional supplement has potential beneficial effects on the immune response, potential toxicity is determined by clinical hematological and classical pathological parameters.
# Pre-study assessment of highest tolerated dose administration by IV or IP injection. The end-point is the highest non-lethal dose administered by each route. Animals are screened daily for signs of lethality and the total time of observation is seven days.
# Clinical and histological assessment of highest tolerated and lessor doses of Fetuin. Seven days prior to the beginning of phase II each animal is bled to determine its background values for hematological and clinical chemistry parameters. The highest tolerated dose and the next lowest, as well as the vehicle are injected in a single injection by the best-tolerated route. After 24 hours the animals are sacrificed. Gross and microscopic pathologic examination are performed on the organs. Hematological, clinical chemistries and clinical pathology tests are performed: (1) Blood Collection and Analysis: Blood samples are collected from each mouse, one at the start of the experiment prior to receiving their injection of Fetuin and the second collected at the time of euthanasia. The samples are collected via retro-orbital sinus bleed, or tail bleed, under anesthesia. (2) Hematology: Approximately 125 ul of whole blood is collected in an EDTA tube at the specified time. The following hematological parameters are determined: White blood cell count (WBC), Red blood cell count (RBC), Hemoglobin (HGB), Hematocrit (HCT), Mean Corpuscular Volume (MCV), Mean Corpuscular Hemoglobin (MCH), Mean Corpuscular Hemoglobin […] (MCHC), Platelet count (PLT), WBC differential count. Whole blood samples for hematology are disposed of one week after analysis. (3) Clinical Chemistry: Approximately 125 ul of whole blood is collected in a tube containing no additives for serum at the specified times. Tests determine the following clinical chemistry parameters: Alanine aminotransferase (ALT) and Aspartate aminotransferase (AST). (4) Collection of Tissue: The following tissues are collected into 10% neutral buffered formalin (NBF): kidney, liver, lung, thymus, reproductive organ, heart, spleen and lymph nodes. Any abnormalities or gross pathology found at necroscopy are recorded for each animal. (5) Histopathology: Histology is done on the tissue samples submitted for each animal. The tissues will be paraffin-embedded, sectioned and stained with hematoxylin and eosin (H&E). A pathology reads the slides for apparent abnormalities.
# Clinical and histological assessment of highest tolerated dose of Fetuin administered daily over 14 days. The highest tolerated dose as determined in Phase II and the vehicle is injected daily for fourteen consecutive days by the best-tolerated route. After 24 hours, one-half of the animals are sacrificed. The remainder are sacrificed after 14 days. Gross microscopic pathologic examination are performed on the organs recovered from all animals. (1) Blood collection and analysis: Blood sample is collected from each mouse, one at the start of the experiment prior to receiving their injection of Fetuin and the second collected at the time of euthanasia. The samples are collected via retro-orbital sinus bleed or tail bleed under anesthesia. (2) Hematology: Approximately 125 ul of whole blood is collected in an EDTA tube at the specified time. The following hematology parameters is determined: White blood cell count (WBC), Red blood cell count (RBC), Hemoglobin (HGB), Hematocrit (HCT), Mean Corpuscular Volume (MCV), Mean Corpuscular Hemoglobin (MCH), Mean Corpuscular Hemoglobin […] (MCHC), Platelet count (PLC), WBC differential count. […]
substance,measurement,setting,value
"Fetuin: Fetal bovine fetuin purified from fetal bovine serum by modified Spiro method; 60 Kd glycoprotein, homologue of alpha 2-HS glycoprotein",Survivors,"P388 leukemia; 0.002 ml of 10 mg/ml Fetuin ip for 10 days, bracket (31) = day",1 (31)
same,Survivors,"P388 leukemia; 0.02 ml of 10 mg/ml Fetuin ip for 10 days, bracket (29) = day",1 (29)
same,Survivors,"P388 leukemia; 0.2 ml of 10 mg/ml Fetuin ip for 10 days (highest dose), bracket (58) = day, listed as Fetal fetuin",8
same,(ILS) Increased Life Span,P388 leukemia; 0.002 ml of 10 mg/ml Fetuin ip for 10 days,29%
same,(ILS) Increased Life Span,P388 leukemia; 0.02 ml of 10 mg/ml Fetuin ip for 10 days,17.2%
same,(ILS) Increased Life Span,P388 leukemia; 0.2 ml of 10 mg/ml Fetuin ip for 10 days (highest dose),141%
same,hypersensitivity reaction after Fetuin injection,[1],no hypersensitivity reaction was shown
same,neurite outgrowth,PC-12 cells,neurite outgrowth was observed in many of the cells
same,Blood glucose levels,"[2]; Balb/C mice, 0.005 mg per animal",13 mg/dL
same,Blood glucose levels,"[2]; Balb/C mice, 0.05 mg Fetuin",27 mg/dL
same,Blood glucose levels,"[2]; Balb/C mice, 0.5 mg Fetuin",25 mg/dL
same,Blood glucose levels,"[2]; Balb/C mice, 5 mg Fetuin per animal",41.6 mg/dL
same,cholesterol levels elevated compared to the lower doses,"[2]; Balb/C mice, 5 mg per mouse, P<0.05",14%
same,survival and clinical signs,"[2]; Balb/C mice, 5, 0.5, 0.05 and 0.005 mg Fetuin via IP route, 7 days",survived for 7 days without any signs of distress
same,White Blood Cell (WBC) levels,"[2]; Balb/C mice, 24 hrs after injection of various doses, p=0.126",within the normal limits
same,AST (Aspartate Aminotransferase) level,"[2]; Balb/C mice, P=0.306",within the normal limits
same,ALT (Alanine Aminotransferase) level,"[2]; Balb/C mice, P=0.444",within the normal limits
same,microscopic structure of tissues,"[2]; Balb/C mice, all dosage groups",normal in architecture
same,body weight change,"[2]; Balb/C mice, control vs Fetuin treated group",no significant body weight change
same,Blood Urinary Nitrogen (BUN) levels,"[2]; Balb/C mice, highest and lowest dose groups, unrelated to dose",elevated
same,overall toxicity,[2]; Balb/c mouse,very low toxicity
same,"red blood cell count, white blood cell count and platelet count","[2]; healthy animals, 5-fold increased dose",did not affect
same,"safety by hematological, clinical chemistry and histopathological analysis","[2]; healthy mice, 2.5-5 fold higher dose than effective in cancer-bearing mice",no obvious adverse effect was observed
